# Measurements from paper PMC2735045.
# Biological target: CsrA-His6 (Escherichia coli, UniProt P69913 1-61)
# Assay: EMSA
# CsrA-His6, sequence (P69913 whole entry): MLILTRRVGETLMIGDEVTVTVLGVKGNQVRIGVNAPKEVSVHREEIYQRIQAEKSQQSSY
row,Binder,Kd
1,ycdT transcript (-36 to +20) (ssRNA) RNA: GGGAAAGGGAUCUACAACCUACAGAUUGGUGUAGCUUUAUGGAAAAAGACUAUUUGAG,2.6 ± 0.3 nM
2,ydeH transcript (-29 to +25) (ssRNA) RNA: GGGCACAAGGAACUGUGAAAAAGGAGUGGCAAUGAUCAAGAAGACAACGGAAAUUG,2.3 ± 0.1 nM
